Columns and labels:
alpha fetoprotein (AFP) = target: T1, alpha fetoprotein (AFP) (UniProt P02771 19-609); experiment: electrochemical aptasensor (MB peak current ratio); 10 ng/mL AFP; 0.01 M PBS (sodium phosphate) pH 7.4; BSA-blocked electrode; CEA incubation temperature and time not in the material; details: protein: commercial
T1 sequence: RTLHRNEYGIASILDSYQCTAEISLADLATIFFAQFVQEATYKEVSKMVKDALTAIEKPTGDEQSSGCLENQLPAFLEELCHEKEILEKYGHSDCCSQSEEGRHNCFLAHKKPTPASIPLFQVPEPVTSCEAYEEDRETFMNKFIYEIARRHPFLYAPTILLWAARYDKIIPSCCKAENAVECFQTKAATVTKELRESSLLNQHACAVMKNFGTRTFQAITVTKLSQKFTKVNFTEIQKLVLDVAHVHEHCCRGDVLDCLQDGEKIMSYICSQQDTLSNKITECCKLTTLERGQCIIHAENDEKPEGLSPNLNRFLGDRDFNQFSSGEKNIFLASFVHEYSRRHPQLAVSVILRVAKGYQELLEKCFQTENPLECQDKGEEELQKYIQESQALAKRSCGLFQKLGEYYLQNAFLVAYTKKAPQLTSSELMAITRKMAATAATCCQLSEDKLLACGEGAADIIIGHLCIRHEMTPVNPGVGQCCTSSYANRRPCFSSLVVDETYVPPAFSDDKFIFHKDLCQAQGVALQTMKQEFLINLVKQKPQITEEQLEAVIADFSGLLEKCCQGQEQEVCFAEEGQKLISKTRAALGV

C-reactive protein (CRP) = target: T2, C-reactive protein (CRP) (UniProt P02741 19-224); experiment: electrochemical aptasensor (MB peak current ratio); 10 ng/mL CRP; 0.01 M PBS (sodium phosphate) pH 7.4; BSA-blocked electrode; CEA incubation temperature and time not in the material; details: protein: commercial; chain copies: 5
T2 sequence: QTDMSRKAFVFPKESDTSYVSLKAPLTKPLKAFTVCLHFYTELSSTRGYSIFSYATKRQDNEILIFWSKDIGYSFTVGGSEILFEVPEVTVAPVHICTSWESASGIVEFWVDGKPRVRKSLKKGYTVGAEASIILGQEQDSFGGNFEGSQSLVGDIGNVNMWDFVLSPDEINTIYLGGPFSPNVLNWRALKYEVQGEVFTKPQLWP

[1] = target: prostate-specific antigen (PSA) (UniProt P07288 25-261); experiment: electrochemical aptasensor (MB peak current ratio); 10 ng/mL PSA; 0.01 M PBS (sodium phosphate) pH 7.4; BSA-blocked electrode; CEA incubation temperature and time not in the material; details: protein: commercial
Chain of prostate-specific antigen (PSA) (P07288 25-261): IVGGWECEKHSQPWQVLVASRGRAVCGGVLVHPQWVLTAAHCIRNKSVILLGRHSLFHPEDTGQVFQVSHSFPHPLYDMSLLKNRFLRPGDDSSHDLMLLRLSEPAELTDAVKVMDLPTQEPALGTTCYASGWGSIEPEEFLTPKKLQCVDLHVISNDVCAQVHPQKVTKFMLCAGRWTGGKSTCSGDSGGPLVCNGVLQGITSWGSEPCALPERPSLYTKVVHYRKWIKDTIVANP

[2] = target: cancer antigen 15-3 (CA15-3) (UniProt P15941 24-1097); experiment: electrochemical aptasensor (MB peak current ratio); 10 uU/mL CA15-3; 0.01 M PBS (sodium phosphate) pH 7.4; BSA-blocked electrode; CEA incubation temperature and time not in the material; details: protein: commercial
Chain of cancer antigen 15-3 (CA15-3) (P15941 24-1097): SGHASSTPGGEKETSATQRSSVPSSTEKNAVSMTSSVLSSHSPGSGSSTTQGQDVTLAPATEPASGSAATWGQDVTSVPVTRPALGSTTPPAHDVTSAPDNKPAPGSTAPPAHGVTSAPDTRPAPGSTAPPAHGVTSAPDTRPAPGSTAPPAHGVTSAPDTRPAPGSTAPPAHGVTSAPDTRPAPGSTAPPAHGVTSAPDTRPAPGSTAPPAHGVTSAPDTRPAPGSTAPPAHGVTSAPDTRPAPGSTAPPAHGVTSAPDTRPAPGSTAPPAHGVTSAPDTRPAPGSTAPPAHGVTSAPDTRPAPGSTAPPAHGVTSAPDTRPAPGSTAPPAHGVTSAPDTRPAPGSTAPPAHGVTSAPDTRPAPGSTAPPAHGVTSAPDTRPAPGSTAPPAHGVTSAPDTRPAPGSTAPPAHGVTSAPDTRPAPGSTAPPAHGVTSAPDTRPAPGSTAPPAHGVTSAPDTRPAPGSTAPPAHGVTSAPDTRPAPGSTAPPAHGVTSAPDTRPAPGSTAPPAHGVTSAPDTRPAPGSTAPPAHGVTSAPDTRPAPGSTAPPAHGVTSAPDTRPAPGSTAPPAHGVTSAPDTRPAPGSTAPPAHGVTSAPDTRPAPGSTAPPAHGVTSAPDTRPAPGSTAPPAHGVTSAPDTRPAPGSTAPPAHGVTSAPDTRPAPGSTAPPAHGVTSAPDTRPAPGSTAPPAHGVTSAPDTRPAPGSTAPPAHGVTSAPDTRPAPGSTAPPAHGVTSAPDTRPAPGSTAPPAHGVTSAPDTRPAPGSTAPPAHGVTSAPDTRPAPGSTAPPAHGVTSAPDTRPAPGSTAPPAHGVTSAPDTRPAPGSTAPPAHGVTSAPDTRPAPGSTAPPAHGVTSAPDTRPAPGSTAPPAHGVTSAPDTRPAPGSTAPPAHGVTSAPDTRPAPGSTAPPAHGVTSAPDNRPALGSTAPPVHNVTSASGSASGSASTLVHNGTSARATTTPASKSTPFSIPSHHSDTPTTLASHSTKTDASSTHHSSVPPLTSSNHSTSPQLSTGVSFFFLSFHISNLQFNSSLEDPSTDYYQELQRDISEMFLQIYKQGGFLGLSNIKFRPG

[3] = target: carcinoembryonic antigen (CEA) (UniProt P06731 35-685); experiment: electrochemical aptasensor (DPV, CV, EIS); 1 pg/mL-1 ug/mL CEA; LOD 0.22 pg/mL (not a Kd); 0.01 M PBS (sodium phosphate) pH 7.4; BSA-blocked electrode; CEA incubation temperature and time not in the material; details: protein: commercial
Chain of carcinoembryonic antigen (CEA) (P06731 35-685): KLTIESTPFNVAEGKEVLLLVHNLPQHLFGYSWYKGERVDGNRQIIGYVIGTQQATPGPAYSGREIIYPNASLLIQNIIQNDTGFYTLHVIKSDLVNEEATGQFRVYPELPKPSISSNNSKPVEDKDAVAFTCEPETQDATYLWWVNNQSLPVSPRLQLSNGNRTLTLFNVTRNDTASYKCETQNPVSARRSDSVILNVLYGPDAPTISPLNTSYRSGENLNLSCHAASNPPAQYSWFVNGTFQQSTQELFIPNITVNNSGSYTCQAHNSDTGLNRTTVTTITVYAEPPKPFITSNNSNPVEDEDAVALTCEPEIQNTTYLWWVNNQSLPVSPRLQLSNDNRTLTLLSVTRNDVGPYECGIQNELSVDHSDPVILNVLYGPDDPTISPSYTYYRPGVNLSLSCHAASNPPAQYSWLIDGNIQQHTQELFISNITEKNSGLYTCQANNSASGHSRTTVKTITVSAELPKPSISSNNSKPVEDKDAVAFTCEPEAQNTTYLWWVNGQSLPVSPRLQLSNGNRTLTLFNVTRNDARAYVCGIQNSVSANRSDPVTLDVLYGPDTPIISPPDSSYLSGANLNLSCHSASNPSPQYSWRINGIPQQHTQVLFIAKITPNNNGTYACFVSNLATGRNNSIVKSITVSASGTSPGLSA

ATACAGCTTCAATT (ssDNA, 3'-NH2, immobilized via glutaraldehyde on amino-silica film) [CEA aptamer]: no binding (alpha fetoprotein (AFP)); no binding (C-reactive protein (CRP)); no binding [1]. ATACAGCTTCAATT (ssDNA, 3'-NH2, immobilized via glutaraldehyde on amino-silica film) [CEA aptamer]: no binding [2]; binds [3].

Source: PMC10221436, “Reagentless Electrochemical Detection of Tumor Biomarker Based on Stable Confinement of Electrochemical Probe in Bipolar Silica Nanochannel Film”
